Legend:
[1] = target: CtYpt7-F33A (Chaetomium thermophilum)
[2] = target: CtYpt7 wild type (Chaetomium thermophilum Ypt7) (Chaetomium thermophilum)
[3] = target: CtYpt7-K38A (Chaetomium thermophilum)

## CtMC1core complex (CtMon1 195-355 with CtCcz1 1-249), both expression tags retained, as used in the GEF assay
[1]
  kcat/KM of MC1-stimulated nucleotide exchange (fluorescence GEF assay, rates against CtMC1core concentration): 35000 M⁻¹ s⁻¹
[2]
  kcat/KM of MC1-stimulated exchange of MANT-GDP for GTP on Ypt7 (fluorescence GEF assay, 0-2.0 μM CtMC1core, 25 °C): 23000 M⁻¹ s⁻¹
[3]
  kcat/KM of MC1-stimulated nucleotide exchange (fluorescence GEF assay, rates against CtMC1core concentration): 2600 M⁻¹ s⁻¹

— PMC5216073
